What is called EC50 (read off the curve) is the midpoint of the concentration-response curve.

We go through 3 molecules from patent US20190153113A1, “CD39 VASCULAR ISOFORM TARGETING AGENTS” (INNATE PHARMA, priority 2015, published 2019).

One assay has as its target T1, CD39 (Homo sapiens, UniProt P49961).
T1 construct: cells that endogenously express CD39 at their surface, e.g. regulatory T (TReg) cells, B cells, cancer cells, lymphoma cells (e.g. Ramos cells); endogenous in cells; host or cells: Ramos human lymphoma cells
T1 sequence (P49961 1-510): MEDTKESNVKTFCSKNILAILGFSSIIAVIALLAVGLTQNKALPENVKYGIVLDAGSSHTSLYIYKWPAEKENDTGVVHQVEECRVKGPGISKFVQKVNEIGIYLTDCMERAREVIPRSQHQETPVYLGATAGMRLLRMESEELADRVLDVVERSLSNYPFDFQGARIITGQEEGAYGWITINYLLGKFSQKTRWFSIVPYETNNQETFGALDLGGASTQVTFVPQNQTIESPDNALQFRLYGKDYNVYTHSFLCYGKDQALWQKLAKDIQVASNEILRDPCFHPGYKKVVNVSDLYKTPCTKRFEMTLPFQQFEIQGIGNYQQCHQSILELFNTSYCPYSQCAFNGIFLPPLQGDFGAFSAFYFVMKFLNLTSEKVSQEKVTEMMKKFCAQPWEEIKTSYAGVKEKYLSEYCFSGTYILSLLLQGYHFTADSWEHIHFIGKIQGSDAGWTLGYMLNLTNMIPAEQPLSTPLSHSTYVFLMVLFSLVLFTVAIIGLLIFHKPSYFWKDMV
Kind of assay: Inhibition of CD39 enzymatic activity in Ramos cells, AMP production by Maldi TOF mass spectrometry. To be noted: Ramos cells, ARL at 100 nM, Example 7. The format is cell-based. As for the experimental part:
The inhibition of CD39 enzymatic activity by antibodies was evaluated by Maldi TOF mass spectrometry (production of AMP). This assay represents an assay that is relatively insensitive to down-modulation of CD39 expression. […] After washes, cells were incubated with anti-CD39 antibodies, isotype control, or ARL and 50 μM ATP for 30 minutes at 4° C. in PBS. AMP generated is quantified in supernatants by Maldi TOP.
The inhibition of CD39 enzymatic activity by antibodies was evaluated by Maldi TOF mass spectrometry (production of AMP). Briefly, 10^5 Ramos human lymphoma cells were incubated overnight at 37° C. with anti-CD39 antibodies or a chemical CD39 inhibitor (ARL 100 μM). After washes, cells were incubated with anti-CD39 antibodies, isotype control, or ARL and 50 μM ATP for 30 minutes at 4° C. in PBS. AMP generated is quantified in supernatants by Maldi TOP. Antibodies were used at 33 nM and ARL at […].

The target of assay [1] is T2, Human CD39 (vascular CD39, NTPDase1, ENTPD1) expressed at the cell surface (human, UniProt P49961 1-510).
T2 construct: also called huCD39; HEK-huCD39
T2 sequence: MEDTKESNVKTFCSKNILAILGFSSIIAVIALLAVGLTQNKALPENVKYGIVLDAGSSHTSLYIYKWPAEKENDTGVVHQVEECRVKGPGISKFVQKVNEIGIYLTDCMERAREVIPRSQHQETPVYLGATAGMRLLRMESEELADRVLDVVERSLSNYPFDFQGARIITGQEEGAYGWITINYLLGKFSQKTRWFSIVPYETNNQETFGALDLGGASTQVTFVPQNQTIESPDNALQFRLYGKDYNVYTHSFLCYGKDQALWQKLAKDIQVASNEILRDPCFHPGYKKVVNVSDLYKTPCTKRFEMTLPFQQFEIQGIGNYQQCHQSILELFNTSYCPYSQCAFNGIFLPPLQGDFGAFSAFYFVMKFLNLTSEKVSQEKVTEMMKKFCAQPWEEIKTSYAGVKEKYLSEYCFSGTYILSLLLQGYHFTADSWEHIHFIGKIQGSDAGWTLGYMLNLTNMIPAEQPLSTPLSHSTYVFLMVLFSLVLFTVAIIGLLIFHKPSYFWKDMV
Kind of assay: flow cytometry on Ramos cells, antibody at 10 µg/ml, GAM-PE. (Flow cytometry measures light scatter and fluorescence of single cells or particles in a stream.)

For assay [2], the target named is T3, Recombinant human CD39-L3 (NTPDase3, ENTPD3) (human, UniProt O75355 44-485, limits assumed).
T3 construct: Coated in ELISA
T3 sequence: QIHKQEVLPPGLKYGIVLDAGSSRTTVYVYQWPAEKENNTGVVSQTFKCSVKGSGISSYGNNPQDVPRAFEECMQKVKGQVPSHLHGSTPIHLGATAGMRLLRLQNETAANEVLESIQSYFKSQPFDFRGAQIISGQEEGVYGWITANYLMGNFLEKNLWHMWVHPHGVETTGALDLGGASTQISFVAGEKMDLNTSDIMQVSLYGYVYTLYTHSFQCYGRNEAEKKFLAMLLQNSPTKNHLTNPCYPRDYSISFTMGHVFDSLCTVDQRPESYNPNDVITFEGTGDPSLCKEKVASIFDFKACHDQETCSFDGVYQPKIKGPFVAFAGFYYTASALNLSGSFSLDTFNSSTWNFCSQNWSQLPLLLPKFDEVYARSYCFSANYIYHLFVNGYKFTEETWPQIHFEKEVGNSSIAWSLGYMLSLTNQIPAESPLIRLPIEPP
Kind of assay: ELISA, recombinant isoform coated at 500 ng/ml or 1 µg/ml. As to the method: (§1) Wells were washed in TBS Tween 20, and further saturated 2H at RT in TBS Blocking buffer. Dose range concentration of primary antibody was incubated in TBS blocking buffer for 2h at RT. Wells were washed in TBS Tween 20. […] Optical density was measured on Enspire at OD=450.
(In general: In an ELISA, binding on a coated surface is turned into a signal by an enzyme label.)

The target in assay [3] is T4, Recombinant human CD39-L2 (NTPDase6, ENTPD6) (human, UniProt O75354 61-484, limits assumed).
T4 construct: Coated in ELISA
T4 sequence: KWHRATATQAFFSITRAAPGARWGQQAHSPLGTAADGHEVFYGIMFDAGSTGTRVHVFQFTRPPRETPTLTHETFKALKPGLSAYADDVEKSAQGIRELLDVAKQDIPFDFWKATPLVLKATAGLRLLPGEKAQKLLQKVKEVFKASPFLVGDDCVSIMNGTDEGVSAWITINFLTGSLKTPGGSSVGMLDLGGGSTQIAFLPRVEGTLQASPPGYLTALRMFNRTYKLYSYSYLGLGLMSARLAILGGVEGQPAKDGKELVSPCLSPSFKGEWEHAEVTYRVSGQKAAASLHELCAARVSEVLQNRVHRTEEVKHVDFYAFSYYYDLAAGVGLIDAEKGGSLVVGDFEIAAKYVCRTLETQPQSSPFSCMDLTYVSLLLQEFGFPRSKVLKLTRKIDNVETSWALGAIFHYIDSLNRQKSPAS
The description is as above. As for the experimental part: as §1

Assay [4] has as its target T5, Recombinant human CD39-L4 (NTPDase5, ENTPD5) (human, UniProt O75356 25-428).
T5 construct: Coated in ELISA
T5 sequence: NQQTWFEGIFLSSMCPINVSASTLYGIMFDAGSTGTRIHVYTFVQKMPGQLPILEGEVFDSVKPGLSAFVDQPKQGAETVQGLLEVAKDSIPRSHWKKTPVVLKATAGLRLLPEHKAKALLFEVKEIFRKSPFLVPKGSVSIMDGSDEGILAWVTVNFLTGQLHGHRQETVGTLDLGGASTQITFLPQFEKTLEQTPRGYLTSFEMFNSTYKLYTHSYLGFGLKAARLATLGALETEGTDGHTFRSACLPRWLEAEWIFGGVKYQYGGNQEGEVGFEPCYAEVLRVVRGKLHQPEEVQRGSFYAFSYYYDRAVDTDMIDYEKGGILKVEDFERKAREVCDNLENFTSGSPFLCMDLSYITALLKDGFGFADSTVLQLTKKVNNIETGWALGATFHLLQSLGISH
Described as above. As to the method:
as §1

Assay [5] addresses T5, Recombinant human CD39-L4 (NTPDase5, …). Kind of assay: ELISA on coated RechuCD39-L4, OD 450 nm [bottom panel Mouse IgG2a I-391]. As for the experimental part: as §1
Assay [6] has as its target T6, Recombinant human CD39 protein (vascular isoform), soluble (human, UniProt P49961 38-478).
T6 construct: they are written under this molecule; also called Rec-huCD39; huCD39 protein; not shown: M2 tag added in the C-terminal part
T6 sequence: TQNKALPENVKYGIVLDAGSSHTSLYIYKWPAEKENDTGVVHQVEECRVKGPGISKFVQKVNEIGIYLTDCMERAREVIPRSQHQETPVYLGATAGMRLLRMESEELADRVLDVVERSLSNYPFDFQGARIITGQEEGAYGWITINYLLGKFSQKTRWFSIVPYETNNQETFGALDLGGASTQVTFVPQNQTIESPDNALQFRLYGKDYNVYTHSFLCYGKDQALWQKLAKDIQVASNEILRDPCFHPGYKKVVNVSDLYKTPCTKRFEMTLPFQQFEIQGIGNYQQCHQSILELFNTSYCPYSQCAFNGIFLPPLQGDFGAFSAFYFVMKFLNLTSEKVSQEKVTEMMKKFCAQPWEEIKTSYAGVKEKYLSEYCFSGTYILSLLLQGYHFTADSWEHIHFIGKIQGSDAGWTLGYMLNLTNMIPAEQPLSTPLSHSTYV
Kind of assay: ELISA on coated recombinant human CD39 (RechuCD39), HRP secondary antibody, TMB, OD 450 nm [bottom panel Mouse IgG2a I-391]. As to the method: as §1

In assay [7] the target is T4, Recombinant human CD39-L2 (NTPDase6, …). Kind of assay: ELISA on coated RechuCD39-L2, OD 450 nm [bottom panel Mouse IgG2a I-391]. As to the method: as §1
The target of assay [8] is T3, Recombinant human CD39-L3 (NTPDase3, …). Kind of assay: ELISA on coated RechuCD39-L3, OD 450 nm [bottom panel Mouse IgG2a I-391]. As for the experimental part:
as §1

Turning to `CCN(CC)c1ncnc2c1ncn2[C@@H]1O[C@H](COP(=O)(O)OP(=O)(O)C(Br)(Br)P(=O)(O)O)[C@@H](O)[C@H]1O` [ARL, reference compound], the “inhibition of AMP generated” value against CD39 is given as “strong inhibition of AMP generated, but resulted in significantly less CD39 blockade than I-391”.

B1: Antibody I-392, recombinant chimeric human IgG1 with heavy chain N297Q mutation (antibody, V domains shown)
VH: QIQLVQSGPEVKKPRETVKISCKASGYTFTHYGMNWVKQAPGKGLKWMGWINTYTGEPTYADDFKGRFAFSLEASASTAYLQINNLKNEDTATYFCARRRYEGNYVFYYFDYWGQGTTLTVSS
VL: DIQMTQSPASLSASVGETVTITCRASENIYSYFSWYQQKQGKSPQLLVYTAKTLAEGVPSRFSGSGSGTQFSLKINSLQPEDFGSYYCQHHYVTPYTFGGGTKLEIK
Regarding B1, the binding result was “binds” in [1], “no binding” in [2], “no binding” in assay [3] and “no binding” in [4].

B2: Antibody I-391 with Fc domain of mouse IgG2a isotype (MOGA) (antibody, V domains shown)
VH: QIQLVQSGPELKKPGETVKISCKASGYTFRNYGMNWVKQAPGKGLKWMGWINTYTGEPTYADDFKGRFAFSLATSASTAYLQISNLKNEDTATYFCARKAYYGSNYYFDYWGQGTTLTVSS
VL: DIVMTQSHKFMSTSVGDRVSITCKASQDVSTAVAWYQQKPGQSPKLLIYSASYRYTGVPDRFTGSGSGTDFTFTISTVQAEDLAVYYCQQHYTTPPYTFGGGTKLEIK
B2: the binding result in assay [5], in assay [7] and in assay [8] was “no binding (tested: 50 ug/ml)” each time. Besides, the “EC50 (read off the curve)” value in assay [6] was roughly 0.08 µg/mL.
